From publication PMC7865074

B1: PDZ domain-containing protein GIPC3, PDZ domain (N2H construct) (domain or fragment)
chain: EVEVTKTEDALGLTITDNGAGYAFIKRIKEGSIINRIEAVCVGDSIEAINDHSIVGCRHYEVAKMLRELPKSQPFTLRLVQ
B2: Beta-1-syntrophin, PDZ domain (N2H construct) (domain or fragment)
chain: GVKVLKQELGGLGISIKGGKENKMPILISKIFKGLAADQTQALYVGDAILSVNGADLRDATHDEAVQALKRAGKEVLLEVKYMR
B3: Synaptojanin-2-binding protein, PDZ domain (N2H construct) (domain or fragment)
chain: EINLTRGPSGLGFNIVGGTDQQYVSNDSGIYVSRIKENGAAALDGRLQEGDKILSVNGQDLKNLLHQDAVDLFRNAGYAVSLRVQHRL
B4: Protein piccolo, PDZ domain (N2H construct) (domain or fragment)
chain: RIKITRDSKDHTVSGNGLGIRIVGGKEIPGHSGEIGAYIAKILPGGSAEQTGKLMEGMQVLEWNGIPLTSKTYEEVQSIISQQSGEAEICVRLDL
B5: PDZ domain-containing protein 2, PDZ domain 2 (N2H construct) (domain or fragment)
chain: KMELLKESDGLGIQVSGGRGSKRSPHAIVVTQVKEGGAAHRDGRLSLGDELLVINGHLLVGLSHEEAVAILRSATGMVQLVVASKE
B6: T-lymphoma invasion and metastasis-inducing protein 2, PDZ domain (N2H construct) (domain or fragment)
chain: DVQLTKTGSVCDFGFAVTAQVDERQHLSRIFISDVLPDGLAYGEGLRKGNEIMTLNGEAVSDLDLKQMEALFSEKSVGLTLIARPPD
B7: PDZ and LIM domain protein 1, PDZ domain (N2H construct) (domain or fragment)
chain: TQQIDLQGPGPWGFRLVGGKDFEQPLAISRVTPGSKAALANLCIGDVITAIDGENTSNMTHLEAQNRIKGCTDNLTLTVARSE
B8: Regulating synaptic membrane exocytosis protein 2, PDZ domain (N2H construct) (domain or fragment)
chain: DGSVPRDSGAMLGLKVVGGKMTESGRLCAFITKVKKGSLADTVGHLRPGDEVLEWNGRLLQGATFEEVYNIILESKPEPQVELVVSR
B9: Partitioning defective 3 homolog B, PDZ domain 1 (N2H construct) (domain or fragment)
chain: TRTVEISGEGGPLGIHVVPFFSSLSGRILGLFIRGIEDNSRSKREGLFHENECIVKINNVDLVDKTFAQAQDVFRQAMKSPSVLLHVLP
B10: 26S proteasome non-ATPase regulatory subunit 9, PDZ domain (N2H construct) (domain or fragment)
chain: QARDMAEAHKEAMSRKLGQSESQGPPRAFAKVNSISPGSPASIAGLQVDDEIVEFGSVNTQNFQSLHNIGSVVQHSEGKPLNVTVIRR
B11: Ligand of Numb protein X 2, PDZ domain 2 (N2H construct) (domain or fragment)
chain: QVALHKRDSGEQLGIKLVRRTDEPGVFILDLLEGGLAAQDGRLSSNDRVLAINGHDLKYGTPELAAQIIQASGERVNLTIARPG
B12: Whirlin, PDZ domain 3 (N2H construct) (domain or fragment)
chain: LVRVKKSAATLGIAIEGGANTRQPLPRIVTIQRGGSAHNCGQLKVGHVILEVNGLTLRGKEHREAARIIAEAFKTKDRDYIDFL
B13: Rho GTPase-activating protein 21, PDZ domain (N2H construct) (domain or fragment)
chain: TVTLKRTSQGFGFTLRHFIVYPPESAIQFSYKDEENGNRGGKQRNRLEPMDTIFVKQVKEGGPAFEAGLCTGDRIIKVNGESVIGKTYSQVIALIQNSDTTLELSVMPKD
B14: SH3 and multiple ankyrin repeat domains protein 3, PDZ domain (N2H construct) (domain or fragment)
chain: VAVLQKRDHEGFGFVLRGAKAETPIEEFTPTPAFPALQYLESVDVEGVAWRAGLRTGDFLIEVNGVNVVKVGHKQVVALIRQGGNRLVMKVVSVT
B15: Rho guanine nucleotide exchange factor 12, PDZ domain (N2H construct) (domain or fragment)
chain: CVIIQKDDNGFGLTVSGDNPVFVQSVKEDGAAMRAGVQTGDRIIKVNGTLVTHSNHLEVVKLIKSGSYVALTVQGRPPGS
B16: SH3 and multiple ankyrin repeat domains protein 1, PDZ domain (N2H construct) (domain or fragment)
chain: TVLLQKKDSEGFGFVLRGAKAQTPIEEFTPTPAFPALQYLESVDEGGVAWRAGLRMGDFLIEVNGQNVVKVGHRQVVNMIRQGGNTLMVKVVMVT
B17: PDZ domain-containing protein 4, PDZ domain (N2H construct) (domain or fragment)
chain: EVELYKSSHRDKLGLMVCYRTDDEEDLGIYVGEVNPNSIAAKDGRIREGDRIIQINGVDVQNREEAVAILSQEENTNISLLVARP
B18: MPDZ, PDZ domain 6 (N2H construct) (domain or fragment)
chain: TINIAKGNSSLGMTVSANKDGLGMIVRSIIHGGAISRDGRIAIGDCILSINEESTISVTNAQARAMLRRHSLIGPDIKITYV
B19: Zona Occludens 3; Tight Junction Protein 3, PDZ domain 3 (N2H construct) (domain or fragment)
chain: DTRVVRFLKGKSIGLRLAGGNDVGIFVSGVQAGSPADGQGIQEGDQILQVNDVPFQNLTREEAVQFL
B20: Zona Occludens 3; Tight Junction Protein 3, PDZ domain 1 (N2H construct) (domain or fragment)
chain: TATLSKDPRRGFGIAISGGRDRPGGSMVVSDVVPGGPAEGRLQTGDHIVMVNGVSMENATSAFAIQILKTCTKMANITVKRPR
B21: Membrane-associated guanylate kinase, WW and PDZ domain-containing protein 2, PDZ domain 1 (N2H construct) (domain or fragment)
chain: ESVIGRNPEGQLGFELKGGAENGQFPYLGEVKPGKVAYESGSKLVSEELLLEVNETPVAGLTIRDVLAVIKHCKDPLRLKCVKQG
B22: SH3 and multiple ankyrin repeat domains protein 2, PDZ domain (N2H construct) (domain or fragment)
chain: TVVLQKKDNEGFGFVLRGAKADTPIEEFTPTPAFPALQYLESVDEGGVAWQAGLRTGDFLIEVNNENVVKVGHRQVVNMIRQGGNHLVLKVVTVT
B23: MAGUK p55 subfamily member 5, PDZ domain (N2H construct) (domain or fragment)
chain: IVRIEKARDIPLGATVRNEMDSVIISRIVKGGAAEKSGLLHEGDEVLEINGIEIRGKDVNEVFDLLSDMHGTLTFVLIPSQ

What follows are binders tested against full-length (FL) NS5 protein (wt PBM) of West Nile virus (West Nile virus) (assay: split reporter (BiFC, NanoBiT); N2H split-NanoLuc in HEK-293T cells; full-length NS5 with 257 single PDZ domains; read-out NLR with NS5 minus NLR with NS5ΔPBM, three experiments; hits > 0.25).
B1 gave an NLR(NS5) - NLR(NS5ΔPBM) of 2.15.
B2 showed an NLR(NS5) - NLR(NS5ΔPBM) of under 0.25.
For B3, the NLR(NS5) - NLR(NS5ΔPBM) was under 0.25.
B4 gave an NLR(NS5) - NLR(NS5ΔPBM) of 0.57.
Binder B5 has an NLR(NS5) - NLR(NS5ΔPBM) of 0.49.
With B6 the NLR(NS5) - NLR(NS5ΔPBM) was 0.65.
B7 showed an NLR(NS5) - NLR(NS5ΔPBM) of 27.2.
B8 showed an NLR(NS5) - NLR(NS5ΔPBM) of 11.2.
Binder B9 has an NLR(NS5) - NLR(NS5ΔPBM) of 0.42.
B10 showed an NLR(NS5) - NLR(NS5ΔPBM) of 1.21.
With B11 the NLR(NS5) - NLR(NS5ΔPBM) was 0.25.
In the case of B12, the NLR(NS5) - NLR(NS5ΔPBM) is reported as 0.38.
B13 gave an NLR(NS5) - NLR(NS5ΔPBM) of under 0.25.
Work on B14 yielded an NLR(NS5) - NLR(NS5ΔPBM) of under 0.25.
B15 was tested, and the NLR(NS5) - NLR(NS5ΔPBM) was under 0.25.
B16 gave an NLR(NS5) - NLR(NS5ΔPBM) of 1.66.
For B17, the NLR(NS5) - NLR(NS5ΔPBM) was 0.85.
B18 gave an NLR(NS5) - NLR(NS5ΔPBM) of 0.38.
With B19 the NLR(NS5) - NLR(NS5ΔPBM) was 0.72.
Binder B20 has an NLR(NS5) - NLR(NS5ΔPBM) of 3.05.
With B21 the NLR(NS5) - NLR(NS5ΔPBM) was 0.26.
B22 gave an NLR(NS5) - NLR(NS5ΔPBM) of under 0.25.
B23 showed an NLR(NS5) - NLR(NS5ΔPBM) of 0.26.
